Experimental data from the MegaScale stability set (Tsuboyama et al. 2023).

B1: EHEE_rd3_0053 (parent)
chain: TYTFKVDNKDQAKKAAKWAKKLGLSFQIEKHGDTFKITVQ

Variants of: B1
Experiment: folding stability dG (cDNA display proteolysis); higher = more stable
Conditions: PBS, room temperature

| Variant | folding stability dG [kcal/mol] |
| --- | --- |
| TYTFKVDNKDQAKKAAKWTKKLGLSFQIEKHGDTFKITVQ | 0.316 |
| TYTFKVDNKDQAKKAAKWHKKLGLSFQIEKHGDTFKITVQ | 0.465 |
| TYTFKVDNKDQAKKAAKWSKKLGLSFQIEKHGDTFKITVQ | 0.85 |
| TYTFKVDNKDQAKKAAKWMKKLGLSFQIEKHGDTFKITVQ | 2.79 |
| TYTFKVDNKDQAKKAAKWNKKLGLSFQIEKHGDTFKITVQ | -0.253 |
| TYTFKVDNKDQAKKAAKWAKKLGLSFQIEKWGDTFKITVQ | 2.41 |
| TYTFKVDNKDQAKKAAKWAKKLGLSFQIEKSGDTFKITVQ | 2.45 |
| TYTFKVDNKDQAKKAAKWAKKLGQSFQIEKHGDTFKITVQ | 0.563 |
| TYTFKVDNKDQAKKAAKWAKKLGTSFQIEKHGDTFKITVQ | 0.294 |
| TYTFKVDNADQAKKAAKWAKKLGLSFQIEKHGDTFKITVQ | 2.62 |
| TYTFKVDNVDQAKKAAKWAKKLGLSFQIEKHGDTFKITVQ | 2.57 |
| TYTFKVDNRDQAKKAAKWAKKLGLSFQIEKHGDTFKITVQ | 2.46 |
| TYTFKVDNKDGAKKAAKWAKKLGLSFQIEKHGDTFKITVQ | 1.97 |
| TYTFKVDNKDIAKKAAKWAKKLGLSFQIEKHGDTFKITVQ | 1.97 |
| TYTFKVDNKDTAKKAAKWAKKLGLSFQIEKHGDTFKITVQ | 1.93 |
| TYTFKVDNKDQAKKAAKWAKKLFLSFQIEKHGDTFKITVQ | 1.3 |
| TYTFKVDNKDQAKKAAKWAKKLELSFQIEKHGDTFKITVQ | 1.08 |
| TYTFKVDNKDQAKKAAKWAKKLRLSFQIEKHGDTFKITVQ | 1.66 |
| TYTFKVDNKDQAKKAAKWAKKLGLSFQIERHGDTFKITVQ | 2.5 |
| TYTFKVDNKDQAKKAAKWAKKLGLSFQIETHGDTFKITVQ | 2.04 |
| TYTFKVDNKDQAKKAAKWAKKLGLSFQIEPHGDTFKITVQ | 2.09 |
| TYTFKVDNKDQAKKAAKWAKKLGLSFQIEHHGDTFKITVQ | 1.91 |
| TYTFKVDNKDQAKKAAKWAKKWGLSFQIEKHGDTFKITVQ | 2.21 |
| TYTFKVDNKDQAKKAAKWAKKIGLSFQIEKHGDTFKITVQ | 1.76 |
| TYTFKVDNKDQIKKAAKWAKKLGLSFQIEKHGDTFKITVQ | 1.97 |

| Variant | folding stability dG [kcal/mol] |
| --- | --- |
| TYTFKVDNKDQFKKAAKWAKKLGLSFQIEKHGDTFKITVQ | 1.36 |
| TYTFKVDNKDQLKKAAKWAKKLGLSFQIEKHGDTFKITVQ | 2.42 |
| TYTFKVDNKDQGKKAAKWAKKLGLSFQIEKHGDTFKITVQ | 1.05 |
| TYTFKVDNKDQSKKAAKWAKKLGLSFQIEKHGDTFKITVQ | 1.17 |
| TYTFKVDNKDQAKKAAKWAKKLGLSFQIEKHGDTFKITCQ | 1.68 |
| TYTFKVDNKDQAKKAAKWAKKLGLSFQIEKHGDTFKITQQ | -0.762 |
| TYTFKVDNKDQAKKAAKWAKKLGLSFQIEKHGDTFKITSQ | -0.061 |
| TYTFKVDNKDQAKKAAKWAKKLGLSFQIEKHGDTFKITLQ | 2.23 |
| TYTFKVDNKDQAKKAAKWAKKLGLSFQIEKHGDTFKITHQ | -0.097 |
| TYTFKVDNKDQAKKAAKWAKKLGLSFQIEKHGDTFKITRQ | -0.567 |
| TYTFTVDNKDQAKKAAKWAKKLGLSFQIEKHGDTFKITVQ | 3.28 |
| TYTFKVDNKDQASKAAKWAKKLGLSFQIEKHGDTFKITVQ | 2.11 |
| TYTFKVDNKDQANKAAKWAKKLGLSFQIEKHGDTFKITVQ | 2.27 |
| TYTFKVDNKDQADKAAKWAKKLGLSFQIEKHGDTFKITVQ | 2.46 |
| TYTFKVDNKDQAKKIAKWAKKLGLSFQIEKHGDTFKITVQ | 3.43 |
| TYTFKVDNKDQAKKKAKWAKKLGLSFQIEKHGDTFKITVQ | 1.25 |
| TYTFKVDNKDQAKKFAKWAKKLGLSFQIEKHGDTFKITVQ | 3.33 |
| TYTFKVDNKDQAKKCAKWAKKLGLSFQIEKHGDTFKITVQ | 3.07 |
| TYTFKVDNKDQAKKVAKWAKKLGLSFQIEKHGDTFKITVQ | 3.15 |
| TYTFKVDNKDQAKKAAKWAKKLGLSFQIEKHGDTRKITVQ | 0.294 |
| TYTFKVDNKDQAKKAAKWAKKLGLSFQIEKHGDTIKITVQ | 1.85 |
| TYTFKVDNKDQAKKAAKWAKKLGLSFQIEKHGDTKKITVQ | -0.99 |
| TYTFKVDNKDQAKKAAKWAKKLGLSFQIEKHGDTCKITVQ | 1.93 |
| TYTFKVDNKDQAKKAHKWAKKLGLSFQIEKHGDTFKITVQ | 1.65 |
| TYTFKVDNKDQAKKAYKWAKKLGLSFQIEKHGDTFKITVQ | 2.45 |

| Variant | folding stability dG [kcal/mol] |
| --- | --- |
| TYTFKVDNKDQAKKAWKWAKKLGLSFQIEKHGDTFKITVQ | 2.37 |
| TYTFKVDNKDQAKKAMKWAKKLGLSFQIEKHGDTFKITVQ | 2.45 |
| TYTFKGDNKDQAKKAAKWAKKLGLSFQIEKHGDTFKITVQ | 0.437 |
| TYTFKHDNKDQAKKAAKWAKKLGLSFQIEKHGDTFKITVQ | 0.343 |
| TYTFKQDNKDQAKKAAKWAKKLGLSFQIEKHGDTFKITVQ | 0.045 |
| TYHFKVDNKDQAKKAAKWAKKLGLSFQIEKHGDTFKITVQ | 2.1 |
| TYPFKVDNKDQAKKAAKWAKKLGLSFQIEKHGDTFKITVQ | 0.945 |
| TYMFKVDNKDQAKKAAKWAKKLGLSFQIEKHGDTFKITVQ | 1.99 |
| YYTFKVDNKDQAKKAAKWAKKLGLSFQIEKHGDTFKITVQ | 2.64 |
| VYTFKVDNKDQAKKAAKWAKKLGLSFQIEKHGDTFKITVQ | 2.43 |
| MYTFKVDNKDQAKKAAKWAKKLGLSFQIEKHGDTFKITVQ | 2.37 |
| TYTFKVGNKDQAKKAAKWAKKLGLSFQIEKHGDTFKITVQ | 2.45 |
| TYTFKVVNKDQAKKAAKWAKKLGLSFQIEKHGDTFKITVQ | 2.33 |
| TYTFKVTNKDQAKKAAKWAKKLGLSFQIEKHGDTFKITVQ | 2.47 |
| TYTFKVFNKDQAKKAAKWAKKLGLSFQIEKHGDTFKITVQ | 2.83 |
| TYTFKVYNKDQAKKAAKWAKKLGLSFQIEKHGDTFKITVQ | 2.78 |
| TYTFKVDNKDQAKKAAKWAKKLGLSFIIEKHGDTFKITVQ | 2.67 |
| TYTFKVDNKDQAKKAAKWAKKLGLSFCIEKHGDTFKITVQ | 2.84 |
| TYTFKVDNKDQAKKAAKWAKKLGLSFHIEKHGDTFKITVQ | 2.52 |
| TYTFKVDNKDQAKKAAKWAKKLGLSFVIEKHGDTFKITVQ | 2.62 |
| TYTFKVDNKDQAKKAAKWAKKLGLSFAIEKHGDTFKITVQ | 2.31 |
| TYTFKVDNKDQAKKAAKWAKKLGLSFQIEKHGDTFHITVQ | 2.66 |
| TYTFKVDNKDQAKKAAKWAKKLGLSFQIEKHGDTFSITVQ | 2.52 |
| TYTFKVDNKDQAKKAAKWAKKLGLSFQIEKHGDTFAITVQ | 2.28 |
| TYTFKVDNKDQAKKAAKWAKKLGLSFQIEKHGDTFNITVQ | 2.16 |

| Variant | folding stability dG [kcal/mol] |
| --- | --- |
| TYTFKVDNKLQAKKAAKWAKKLGLSFQIEKHGDTFKITVQ | 2.68 |
| TYTFKVDNKFQAKKAAKWAKKLGLSFQIEKHGDTFKITVQ | 2.75 |
| TYTFKVDNKGQAKKAAKWAKKLGLSFQIEKHGDTFKITVQ | 2.44 |
| TYTFKVDNKTQAKKAAKWAKKLGLSFQIEKHGDTFKITVQ | 2.73 |
| TYTFKVDNKMQAKKAAKWAKKLGLSFQIEKHGDTFKITVQ | 2.67 |
| TYTFKVDNKHQAKKAAKWAKKLGLSFQIEKHGDTFKITVQ | 2.7 |
| TYTFKVDNKDQAKKAAKWAKKLGLSFQIEKHGDTFKFTVQ | 2.15 |
| TYTFKVDNKDQAKGAAKWAKKLGLSFQIEKHGDTFKITVQ | 1.53 |
| TYTFKVDNKDQAKSAAKWAKKLGLSFQIEKHGDTFKITVQ | 2.04 |
| TYTFKVDNKDQAKYAAKWAKKLGLSFQIEKHGDTFKITVQ | 2.17 |
| TYTFKVDNKDQAKMAAKWAKKLGLSFQIEKHGDTFKITVQ | 2.34 |
| TYTFKVDNKDQAKKAAKWAKKLGLSIQIEKHGDTFKITVQ | 2.64 |
| TYTFKVDNKDQAKKAAKWAKKLGLSYQIEKHGDTFKITVQ | 2.29 |
| TYTFKVDNKDQAKKAAKWAKKLGLSVQIEKHGDTFKITVQ | 2.54 |
| TYTFKVDNKDQAKKAAKWAKKLGLSCQIEKHGDTFKITVQ | 2.68 |
| TYTFKVDNKDQAKKAAKWAKKLGLSFQIEKHGDTFKITVH | 2.56 |
| TYTFKVDNKDQAKKAAKWAKKLGLSFQIEKHGDTFKITVS | 2.77 |
| TYTFKVDNKDQAKKAAKWAKKLGLSFQVEKHGDTFKITVQ | 2.23 |
| TYTFKVDNKDQAKKAAKWAKKLGLSFQFEKHGDTFKITVQ | 1.47 |
| TYTFKVDNKDQAKKAAKWAKYLGLSFQIEKHGDTFKITVQ | 2.02 |
| TYTFKVDNKDQAKKAAKWAKHLGLSFQIEKHGDTFKITVQ | 2.16 |
| TYTFKVDNKDQAKKAAKWAKMLGLSFQIEKHGDTFKITVQ | 2.4 |
| TYTFKVDNKDQAKKAAKWAKRLGLSFQIEKHGDTFKITVQ | 2.49 |
| TYTIKVDNKDQAKKAAKWAKKLGLSFQIEKHGDTFKITVQ | 1.79 |
| TYTMKVDNKDQAKKAAKWAKKLGLSFQIEKHGDTFKITVQ | 1.23 |

| Variant | folding stability dG [kcal/mol] |
| --- | --- |
| TYTFKVDNKDQAKKAAKVAKKLGLSFQIEKHGDTFKITVQ | 1.36 |
| TYTFKVDNKDQAKKAAKTAKKLGLSFQIEKHGDTFKITVQ | 1.1 |
| TYTFKVDNKDQAKKAAKMAKKLGLSFQIEKHGDTFKITVQ | 1.68 |
| TYTFKVDNKDQAKKAAKWAKKLGLSFQIEKHGDTFKIYVQ | 1.77 |
| TYTFKVDNKDQAKKAAKWAKKLGLSFQIEKHGDTFKIQVQ | 1.57 |
| TYTFKVDNKDQAKKAAKWAKKLGLSFQIEKHGDTFKIRVQ | 1.72 |
| TYTFKVDPKDQAKKAAKWAKKLGLSFQIEKHGDTFKITVQ | 0.466 |
| TYTFKVDTKDQAKKAAKWAKKLGLSFQIEKHGDTFKITVQ | 2.78 |
| TYTFKVDIKDQAKKAAKWAKKLGLSFQIEKHGDTFKITVQ | 1.16 |
| TYTFKVDAKDQAKKAAKWAKKLGLSFQIEKHGDTFKITVQ | 1.27 |
| TYTFKVDYKDQAKKAAKWAKKLGLSFQIEKHGDTFKITVQ | 1.27 |
| TYTFKVDNKDQAKKAAKWAKKLGLSFQIAKHGDTFKITVQ | 2.06 |
| TYTFKVDNKDQAKKAAKWAKKLGLSFQIWKHGDTFKITVQ | 2 |
| TYTFKVDNKDQAKKAAKWAKKLGLSFQILKHGDTFKITVQ | 1.89 |
| TYTFKVDNKDQAKKAAKWAKKLGLSFQIEKHGDNFKITVQ | 2.28 |
| TYTFKVDNKDQAKKAAKWAKKLGLSFQIEKHGDKFKITVQ | 2.65 |
| TYTFKVDNKDQAKKAAKWAKKLGLSFQIEKHGDQFKITVQ | 2.81 |
| TYTFKVDNKDQAKKAAKWARKLGLSFQIEKHGDTFKITVQ | 2.45 |
| TYTFKVDNKDQAKKAAKWAAKLGLSFQIEKHGDTFKITVQ | 2.29 |
| TETFKVDNKDQAKKAAKWAKKLGLSFQIEKHGDTFKITVQ | 0.685 |
| TDTFKVDNKDQAKKAAKWAKKLGLSFQIEKHGDTFKITVQ | 0.593 |
| TYTFKVDNKDQAKKAAKWAKKLGLIFQIEKHGDTFKITVQ | 2.43 |
| TYTFKVDNKDQAKKAAKWAKKLGLRFQIEKHGDTFKITVQ | 2.4 |
| TYTFKVDNKDQAKKAAKWAKKLGLKFQIEKHGDTFKITVQ | 2.46 |
| TYTFKVDNKDQAKKAAKWAKKLGLFFQIEKHGDTFKITVQ | 2.31 |
